This note sets out measurements from paper doi:10.1101/2024.01.24.577129, “IgG hexamers initiate acute lung injury” (bioRxiv, 2024).

Assay [1] addresses T1, K^b MHC class I monomer presenting SIINFEKL (Mus musculus, H-2b haplotype (K^b), UniProt P01901;P01887).
T1 construct: Commercial MHC class I monomer; also called H-2K^b; MBL International TB-5001-M; copies: + +
Briefly: SPR; monoclonal antibody bound via amine coupling to SensEye G Easy2Spot sensors; serial dilutions (0.5-200 nM) of MHC class I monomers injected; triplicate; IBIS MX96 SPR imager. As to conditions: both partners purified.

Assay [2] has as its target T2, D^b MHC class I monomer presenting … (Mus musculus, H-2b haplotype (D^b), UniProt P01899;P01887).
T2 construct: Commercial MHC class I monomer; also called H-2D^b; MBL International TB-5008-M; copies: + +
The assay is described as above. The following applies: both partners purified.

The target in assay [3] is T3, K^d MHC class I monomer presenting VYLKTNVFL (Mus musculus, H-2d haplotype (K^d), UniProt P01902;P01887).
T3 chain 1: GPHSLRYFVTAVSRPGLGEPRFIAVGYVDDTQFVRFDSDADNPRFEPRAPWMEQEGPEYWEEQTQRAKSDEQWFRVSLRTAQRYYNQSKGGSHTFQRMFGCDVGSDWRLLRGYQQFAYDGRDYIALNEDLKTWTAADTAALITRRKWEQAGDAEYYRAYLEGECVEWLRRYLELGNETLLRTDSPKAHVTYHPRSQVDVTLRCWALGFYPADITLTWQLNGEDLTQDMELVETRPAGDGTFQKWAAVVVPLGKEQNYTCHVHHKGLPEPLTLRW
T3 chain 2: not shown
T3 chain 3: VYLKTNVFL

B1: 34-1-2S antibody (antibody, V domains shown)
VH: EVQLQQSGAEFVRPGASVKLSCTASGFNLKDDYMFWVKQRPEQGLEWIGWIAPDNGDTEYASKFQGKATITADTSSNTAYVQLSSLTSEDTAVYYCTTWGYYSYVNYWGQGTTLTVSS
VL: DIQMTQSPSSLSASLGERVSLTCRASQDIGSNLNWLQQEPDGTIKRLIYATYSLDSGVPKRFSGSRSGSDYSLTISSLESEDFVDYYCLQYASSPYTFGGGTKLEIK
notes: heavy chain variable region of 34-1-2S; mouse IgG2a heavy chain constant region; the class follows from the mIgG2a isotype control and the mIgG2a model; light chain variable region of 34-1-2S; light chain constant region of the mouse antibody; Mouse IgG2a monoclonal antibody; also called clone 34-1-2S; MHC class I alloantibody 34-1-2S; source: bought: BioXCell Cat# BE0180 (stated for the injury …)
Turning to B1, the figures for the binding result in assay [1] and in assay [2] were “binds” and “no binding (tested: 0.5-200 nM)”, respectively.

B2: Kd1 (antibody, V domains shown)
VH: EVLLVESGGDLVKPGGSLKLSCAASGFTFRTYAMSWVRQTPEKRLEWVATIGDDGSYTFYPDNVKGRFTISRDNAKNNLYLQMRHLKSEDTAIYFCARDGLFAYWGQGTLVTVSA
VL: DIQMTQSPSSLSASLGGKVTITCKASQDIKKNIAWYQYKPGKGPRLLIHYTSTLQPGISSRFSGSGSGRDYSFSISNLEPEDIATYYCLQYDSLLYTFGGGTKLEIK
As for B2, the binding result in assay [3] is reported as “binds”.
